Target: sgg_drome sgg (UniProt P18431)
Chain of UniProt P18431 (P18431 whole entry): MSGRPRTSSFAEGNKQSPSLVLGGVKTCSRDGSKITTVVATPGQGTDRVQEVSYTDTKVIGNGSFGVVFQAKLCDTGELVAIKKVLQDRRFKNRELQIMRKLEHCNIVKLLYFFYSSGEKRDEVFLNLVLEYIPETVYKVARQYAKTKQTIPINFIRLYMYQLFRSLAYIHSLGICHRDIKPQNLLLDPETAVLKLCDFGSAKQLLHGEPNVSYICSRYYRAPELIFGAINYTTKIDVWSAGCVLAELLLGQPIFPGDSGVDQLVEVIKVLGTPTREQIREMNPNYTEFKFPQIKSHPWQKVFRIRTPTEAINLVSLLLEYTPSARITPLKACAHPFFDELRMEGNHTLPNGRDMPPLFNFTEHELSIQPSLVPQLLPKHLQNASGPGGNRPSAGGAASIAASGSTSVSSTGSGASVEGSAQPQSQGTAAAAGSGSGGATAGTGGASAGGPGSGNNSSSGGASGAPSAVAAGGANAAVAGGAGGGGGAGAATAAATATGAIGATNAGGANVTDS

Substance: Leucine-rich repeat serine/threonine-protein kinase 2 (Homo sapiens), Q5S007 G2019S
- effect of a mutation on the interaction: increasing interaction

— IntAct's records for PubMed 20881132
